According to PMC9424243, “Structure of a nucleosome-bound MuvB transcription factor complex reveals DNA remodelling” (Nature Communications, 2022):

B1: LIN37^FL(1–246) (natural protein, human, UniProt Q96GY3 1-246, looked up)
chain: MFPVKVKVEKSELEMAKARNQLDAVLQCLLEKSHMDRERLDEEAGKTPSDTHNKDCSIAATGKRPSARFPHQRRKKRREMDDGLAEGGPQRSNTYVIKLFDRSVDLAQFSENTPLYPICRAWMRNSPSVRERECSPSSPLPPLPEDEEGSEVTNSKSRDVYKLPPPTPPGPPGDACRSRIPSPLQPEMQGTPDDEPSEPEPSPSTLIYRNMQRWKRIRQRWKEASHRNQLRYSESMKILREMYERQ
notes: LIN37, human, residues 1-246 (LIN37^FL), codon optimised CDS; Carries the StrepII x2 tag by which the MuvB complexes were purified; the tag was removed with 3C protease before the final SEC; also called FL-LIN37; source: Hi-5 insect cells co-infected with MuvB baculoviruses; purified as part of the complex (Strep-Tactin, 3C protease, SEC)
B2: LIN9^FL(1–542) (natural protein, human, UniProt Q5TKA1 1-542, looked up)
chain: MAELDQLPDESSSAKALVSLKEGSLSNTWNEKYSSLQKTPVWKGRNTSSAVEMPFRNSKRSRLFSDEDDRQINTRSPKRNQRVAMVPQKFTATMSTPDKKASQKIGFRLRNLLKLPKAHKWCIYEWFYSNIDKPLFEGDNDFCVCLKESFPNLKTRKLTRVEWGKIRRLMGKPRRCSSAFFEEERSALKQKRQKIRLLQQRKVADVSQFKDLPDEIPLPLVIGTKVTARLRGVHDGLFTGQIDAVDTLNATYRVTFDRTGLGTHTIPDYEVLSNEPHETMPIAAFGQKQRPSRFFMTPPRLHYTPPLQSPIIDNDPLLGQSPWRSKISGSDTETLGGFPVEFLIQVTRLSKILMIKKEHIKKLREMNTEAEKLKSYSMPISIEFQRRYATIVLELEQLNKDLNKVLHKVQQYCYELAPDQGLQPADQPTDMRRRCEEEAQEIVRHANSSTGQPCVENENLTDLISRLTAILLQIKCLAEGGDLNSFEFKSLTDSLNDIKSTIDASNISCFQNNVEIHVAHIQSGLSQMGNLHAFAANNTNRD
notes: LIN9, human, residues 1-542 (LIN9^FL), codon optimised CDS; Subunit of the co-expressed MuvB, MuvB^core and MMB^core complexes; only DIRP and tudor domains are built in PDB 7R1D; source: Hi-5 insect cells co-infected with MuvB baculoviruses; purified as part of the complex (Strep-Tactin, 3C protease, SEC)
B3: LIN52^FL(1–116) (natural protein, human, UniProt Q52LA3 1-112, looked up)
chain: MASPTDGTDLEASLLSFEKLDRASPDLWPEQLPGVAEFAASFKSPITSSPPKWMAEIERDDIDMLKELGSLTTANLMEKVRGLQNLAYQLGLDESREMTRGKFLNILEKPKK
notes: LIN52, human, residues 1-116 (LIN52^FL), codon optimised CDS; source: Hi-5 insect cells co-infected with MuvB baculoviruses; purified as part of the complex (Strep-Tactin, 3C protease, SEC)
B4: LIN54^short(515–749) (domain or fragment, human, UniProt Q6MZP7 515-749, looked up)
chain: SESASRPRKPCNCTKSLCLKLYCDCFANGEFCNNCNCTNCYNNLEHENERQKAIKACLDRNPEAFKPKIGKGKEGESDRRHSKGCNCKRSGCLKNYCECYEAKIMCSSICKCIGCKNFEESPERKTLMHLADAAEVRVQQQTAAKTKLSSQISDLLTRPTPALNSGGGKLPFTFVTKEVAEATCNCLLAQAEQADKKGKSKAAAERMILEEFGRCLMSVINSAGKAKSDPCAMNC
notes: LIN54, human, residues 515-749 (non-conserved N-terminus removed), codon optimised CDS; also called short version of LIN54; source: Hi-5 insect cells co-infected with MuvB baculoviruses; purified as part of the complex (Strep-Tactin, 3C protease, SEC)

Columns and labels:
LIN9^FL(1–542) [1] = biological target: B2; test: SEC; subunits co-expressed in Hi-5 cells; complex held on Strep-Tactin by StrepII x2 on LIN37, washed with 1000 mM NaCl, tag cut with 3C, then SEC (S200 or Superose 6) in 20 mM HEPES pH 8, 150 mM NaCl, 0.5 mM TCEP; conditions: partners not purified
LIN37^FL(1–246) = biological target: B1; test: mass photometry; purified co-expressed complex diluted from 500 nM just before measurement; 20 mM HEPES pH 8, 150 mM NaCl, 0.5 mM TCEP; conditions: both partners purified
B-MYB^FL(1–700) = biological target: T1, B-MYB^FL(1–700) (human, UniProt P10244 1-700); test: cryo-EM structure; MMB^core:NCP167 mixed at 2.5:1, GraFix (glutaraldehyde, sucrose gradient); nucleosome at 3.3 Å, MuvB^HEAD 7.5 Å and MuvB^TAIL 8.7 Å, known structures fitted; conditions: both partners purified
T1 construct: B-MYB, human, residues 1-700 (B-MYB^FL), codon optimised CDS; source: Hi-5 insect cells, expressed separately, purified separately as per the MuvB protocol
T1 sequence (looked up): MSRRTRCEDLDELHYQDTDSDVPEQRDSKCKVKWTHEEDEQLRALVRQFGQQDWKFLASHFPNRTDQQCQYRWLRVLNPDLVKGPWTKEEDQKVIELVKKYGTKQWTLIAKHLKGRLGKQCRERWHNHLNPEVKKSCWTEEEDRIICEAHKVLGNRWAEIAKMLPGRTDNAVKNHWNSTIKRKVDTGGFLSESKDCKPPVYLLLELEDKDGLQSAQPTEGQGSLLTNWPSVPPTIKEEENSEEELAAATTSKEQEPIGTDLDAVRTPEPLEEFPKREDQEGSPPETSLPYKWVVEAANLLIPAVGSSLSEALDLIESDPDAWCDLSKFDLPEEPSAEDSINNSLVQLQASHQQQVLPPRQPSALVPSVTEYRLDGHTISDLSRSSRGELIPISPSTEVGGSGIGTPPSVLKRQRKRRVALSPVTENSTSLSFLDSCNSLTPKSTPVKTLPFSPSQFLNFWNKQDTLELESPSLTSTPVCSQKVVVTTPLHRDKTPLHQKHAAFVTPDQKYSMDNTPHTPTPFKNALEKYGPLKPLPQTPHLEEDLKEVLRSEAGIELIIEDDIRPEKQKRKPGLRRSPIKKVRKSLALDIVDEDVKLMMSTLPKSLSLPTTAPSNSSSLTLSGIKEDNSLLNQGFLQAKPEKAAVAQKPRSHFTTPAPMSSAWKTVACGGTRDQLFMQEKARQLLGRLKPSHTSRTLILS

RbBP4^FL(1–425) = biological target: T2, RbBP4^FL(1–425) (human, UniProt Q09028 1-425); test: cross-linking; DSSO cross-linking mass spectrometry of 28 μM purified MuvB complex, 10 min on ice, monomeric SEC fraction analysed; conditions: both partners purified
T2 construct: Subunit of the co-expressed MuvB complexes in which the StrepII x2 tag stands on LIN37; source: Hi-5 insect cells co-infected with MuvB baculoviruses; purified as part of the complex (Strep-Tactin, 3C protease, SEC)

LIN9^FL(1–542) [2] = biological target: B2; test: as above; conditions: both partners purified

T2 sequence (Q09028 whole entry): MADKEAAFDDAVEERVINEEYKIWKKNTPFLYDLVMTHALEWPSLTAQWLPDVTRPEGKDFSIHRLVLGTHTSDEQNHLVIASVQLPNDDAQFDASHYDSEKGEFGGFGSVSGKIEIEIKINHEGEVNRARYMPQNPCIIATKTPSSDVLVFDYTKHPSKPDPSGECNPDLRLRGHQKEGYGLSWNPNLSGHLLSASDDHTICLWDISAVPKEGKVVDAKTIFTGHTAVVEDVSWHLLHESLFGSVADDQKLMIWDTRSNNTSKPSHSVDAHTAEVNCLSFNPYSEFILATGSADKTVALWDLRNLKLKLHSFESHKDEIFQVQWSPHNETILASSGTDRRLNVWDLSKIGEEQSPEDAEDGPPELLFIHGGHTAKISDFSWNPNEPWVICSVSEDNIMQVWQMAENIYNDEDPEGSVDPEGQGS

Binder | binding result (LIN9^FL(1–542) [1]) | stoichiometry N (LIN37^FL(1–246)) | binding result (B-MYB^FL(1–700)) | binding result (RbBP4^FL(1–425)) | binding result (LIN9^FL(1–542) [2])
B1 | binds |  |  |  | 
B2 |  | 1 | binds |  | 
B3 |  | 1 |  |  | 
B4 |  | 1 |  | binds | binds
